# Measurements: patent US9988429B2, “Glucagon analogues” (Zealand Pharma A/S, priority 2013, dated 2018)
# Starred links: 1 amine or outer side, 2 acyl side, 3 side chain; linkers in the order of their positions; H or OH if unused. Non-standard residues stand in square brackets, D forms with d. Groups on a side chain read outwards from the residue. *: point of attachment. γGlu = O=C(O)[C@H](CCC(=O)[*:2])N[*:1]; Palmitoyl = CCCCCCCCCCCCCCCC(=O)*; Ac4c = NC1(C(=O)O)CCC1; Ac3c = NC1(C(=O)O)CC1
# T1: endogenous GLP-1 receptor of a murine insulinoma cell line (murine, UniProt O35659 22-463)
# T1 sequence (looked up): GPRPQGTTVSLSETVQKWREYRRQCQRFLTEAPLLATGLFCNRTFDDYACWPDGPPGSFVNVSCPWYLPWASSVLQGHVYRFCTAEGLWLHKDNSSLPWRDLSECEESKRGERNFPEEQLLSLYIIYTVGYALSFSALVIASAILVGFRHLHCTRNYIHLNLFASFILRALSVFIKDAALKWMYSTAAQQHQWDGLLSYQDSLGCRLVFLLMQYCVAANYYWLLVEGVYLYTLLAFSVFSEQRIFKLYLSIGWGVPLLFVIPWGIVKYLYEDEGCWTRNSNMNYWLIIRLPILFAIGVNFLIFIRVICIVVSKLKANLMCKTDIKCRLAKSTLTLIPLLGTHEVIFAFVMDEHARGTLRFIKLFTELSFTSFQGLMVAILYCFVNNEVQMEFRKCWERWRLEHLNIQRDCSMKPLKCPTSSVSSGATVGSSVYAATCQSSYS
# Key:
# Experiment in all cases: cell-based or functional assay
# [1] = molecular target: human glucagon receptor (Glucagon-R) (human, UniProt P47871 26-477)
# Sequence of human glucagon receptor (Glucagon-R) (P47871 26-477): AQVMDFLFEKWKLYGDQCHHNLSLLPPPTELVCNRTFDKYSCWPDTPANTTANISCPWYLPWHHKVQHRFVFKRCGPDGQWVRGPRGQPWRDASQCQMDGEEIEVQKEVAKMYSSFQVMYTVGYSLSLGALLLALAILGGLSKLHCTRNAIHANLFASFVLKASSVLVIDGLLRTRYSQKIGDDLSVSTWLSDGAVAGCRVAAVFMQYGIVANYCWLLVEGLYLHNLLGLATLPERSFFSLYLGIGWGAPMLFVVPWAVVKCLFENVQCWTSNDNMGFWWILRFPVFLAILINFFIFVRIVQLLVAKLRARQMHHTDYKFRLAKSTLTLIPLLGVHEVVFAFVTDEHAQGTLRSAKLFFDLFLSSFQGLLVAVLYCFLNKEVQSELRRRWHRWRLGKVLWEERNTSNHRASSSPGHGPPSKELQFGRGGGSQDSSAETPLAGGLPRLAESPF
# [2] = molecular target: human glucagon-like peptide 1 receptor (GLP-1R) (human, UniProt P43220 24-463)
# [3] = molecular target: T1, endogenous GLP-1 receptor of a murine …
# [4] = molecular target: endogenous glucagon receptor of primary rat hepatocytes (rat, UniProt P30082 27-485)
# Sequence of endogenous glucagon receptor of primary rat hepatocytes (P30082 27-485): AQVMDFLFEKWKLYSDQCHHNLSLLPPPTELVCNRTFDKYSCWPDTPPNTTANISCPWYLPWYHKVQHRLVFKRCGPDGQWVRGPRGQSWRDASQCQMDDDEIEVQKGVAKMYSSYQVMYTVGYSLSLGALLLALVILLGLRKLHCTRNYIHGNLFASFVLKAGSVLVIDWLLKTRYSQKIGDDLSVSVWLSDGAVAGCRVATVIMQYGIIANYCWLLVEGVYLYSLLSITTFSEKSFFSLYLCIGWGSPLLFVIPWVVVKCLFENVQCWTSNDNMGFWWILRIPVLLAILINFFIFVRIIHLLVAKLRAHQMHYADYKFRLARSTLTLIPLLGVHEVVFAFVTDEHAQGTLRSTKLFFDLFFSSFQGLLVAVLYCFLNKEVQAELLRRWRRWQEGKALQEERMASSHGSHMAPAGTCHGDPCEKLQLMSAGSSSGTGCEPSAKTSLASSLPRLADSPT
Binder,"EC50 hGCGR CHO-K1 [nM] (cAMP, AlphaScreen) [1]","EC50 hGLP-1R CHO-K1 [nM] (cAMP, AlphaScreen) [2]",EC50 [nM] (cAMP in murine insulinoma cell line) [3],EC50 [nM] (inhibition of glycogen synthesis rate in primary rat hepatocytes) [4]
HTQGTFTSDYSKYLDEKAAKDFIEWLESA (position 2 is Abu ((S)-2-aminobutyric acid); Lys17 side chain conjugated to hexadecanoyl-isoGlu; C-terminal amide (NH2)) [Compound 10: H-H-Abu-QGTFTSDYSKYLDE-K(Hexadecanoyl-isoGlu)-AAKDFIEWLESA-NH2],0.1,0.27,0.09,2.75
H-H[Ac3c]HGTFTSDYSKYLDSK([γGlu-Palmitoyl])AAHDFVEWLLSA-NH2 (SMILES CCCCCCCCCCCCCCCC(=O)N[C@@H](CCC(=O)NCCCC[C@H](NC(=O)[C@H](CO)NC(=O)[C@H](CC(=O)O)NC(=O)[C@H](CC(C)C)NC(=O)[C@H](Cc1ccc(O)cc1)NC(=O)[C@H](CCCCN)NC(=O)[C@H](CO)NC(=O)[C@H](Cc1ccc(O)cc1)NC(=O)[C@H](CC(=O)O)NC(=O)[C@H](CO)NC(=O)[C@@H](NC(=O)[C@H](Cc1ccccc1)NC(=O)[C@@H](NC(=O)CNC(=O)[C@H](Cc1c[nH]cn1)NC(=O)C1(NC(=O)[C@@H](N)Cc2c[nH]cn2)CC1)[C@@H](C)O)[C@@H](C)O)C(=O)N[C@@H](C)C(=O)N[C@@H](C)C(=O)N[C@@H](Cc1c[nH]cn1)C(=O)N[C@@H](CC(=O)O)C(=O)N[C@@H](Cc1ccccc1)C(=O)N[C@H](C(=O)N[C@@H](CCC(=O)O)C(=O)N[C@@H](Cc1c[nH]c2ccccc12)C(=O)N[C@@H](CC(C)C)C(=O)N[C@@H](CC(C)C)C(=O)N[C@@H](CO)C(=O)N[C@@H](C)C(N)=O)C(C)C)C(=O)O) [Compound 8: H-H-Ac3c-HGTFTSDYSKYLDS-K(Hexadecanoyl-isoGlu)-AAHDFVEWLLSA-NH2],1.82,0.24,0.24,1.18
HXQGTFTSDYSKYLDEKAAKDFIEWLESA (position 2 is DAla (D-alanine); Lys17 side chain conjugated to hexadecanoyl-isoGlu; C-terminal amide (NH2)) [Compound 12: H-H-DAla-QGTFTSDYSKYLDE-K(Hexadecanoyl-isoGlu)-AAKDFIEWLESA-NH2],1.27,0.14,,
H-HAHGTFTSDYSKYLDSK([γGlu-Palmitoyl])AAHDFVEWLLSA-NH2 (SMILES CCCCCCCCCCCCCCCC(=O)N[C@@H](CCC(=O)NCCCC[C@H](NC(=O)[C@H](CO)NC(=O)[C@H](CC(=O)O)NC(=O)[C@H](CC(C)C)NC(=O)[C@H](Cc1ccc(O)cc1)NC(=O)[C@H](CCCCN)NC(=O)[C@H](CO)NC(=O)[C@H](Cc1ccc(O)cc1)NC(=O)[C@H](CC(=O)O)NC(=O)[C@H](CO)NC(=O)[C@@H](NC(=O)[C@H](Cc1ccccc1)NC(=O)[C@@H](NC(=O)CNC(=O)[C@H](Cc1c[nH]cn1)NC(=O)[C@H](C)NC(=O)[C@@H](N)Cc1c[nH]cn1)[C@@H](C)O)[C@@H](C)O)C(=O)N[C@@H](C)C(=O)N[C@@H](C)C(=O)N[C@@H](Cc1c[nH]cn1)C(=O)N[C@@H](CC(=O)O)C(=O)N[C@@H](Cc1ccccc1)C(=O)N[C@H](C(=O)N[C@@H](CCC(=O)O)C(=O)N[C@@H](Cc1c[nH]c2ccccc12)C(=O)N[C@@H](CC(C)C)C(=O)N[C@@H](CC(C)C)C(=O)N[C@@H](CO)C(=O)N[C@@H](C)C(N)=O)C(C)C)C(=O)O) [Compound 6: H-HAHGTFTSDYSKYLDS-K(Hexadecanoyl-isoGlu)-AAHDFVEWLLSA-NH2],0.83,0.62,0.4,0.87
H-H[Ac4c]HGTFTSDYSKYLDEK([γGlu-Palmitoyl])AAKDFIEWLESA-NH2 [Compound 15: H-H-Ac4c-HGTFTSDYSKYLDE-K(Hexadecanoyl-isoGlu)-AAKDFIEWLESA-NH2],0.1,,,0.05
